Experimental data taken from PMC11446282.
Positions count from the first letter of the chain named.

B1: ARP19_HUMAN (protein, UniProt P56211 2-112, looked up)
cAMP-regulated phosphoprotein …: SAEVPEAASAEEQKEMEDKVTSPEKAEEAKLKARYPHLGQKPGGSDFLRKRLQKGQKYFDSGDYNMAKAKMKNKQLPTAAPDKTEVTGDHIPTPQDLPQRKPSLVASKLAG
B2: IER5_HUMAN (protein, UniProt Q5VY09 1-327, looked up)
Immediate early response gene …: MEFKLEAHRIVSISLGKIYNSRVQRGGIKLHKNLLVSLVLRSARQVYLSDPCPGLYLAGPAGTPAPPPQQQPGEPAAGPPAGWGEPPPPAARASWPETEPQPERSSVSDAPRVGDEVPVATVTGVGDVFQGGEADATEAAWSRVEGPRQAAAREAEGTAGGWGVFPEVSRAARRPCGCPLGGEDPPGTPAATPRAACCCAPQPAEDEPPAPPAVCPRKRCAAGVGGGPAGCPAPGSTPLKKPRRNLEQPPSGGEDDDAEEMETGNVANLISIFGSSFSGLLRKSPGGGREEEEGEESGPEAAEPGQICCDKPVLRDMNPWSTAIVAF
B3: 2ABA_HUMAN (protein, UniProt P63151 2-447, looked up)
Serine/threonine-protein …: AGAGGGNDIQWCFSQVKGAVDDDVAEADIISTVEFNHSGELLATGDKGGRVVIFQQEQENKIQSHSRGEYNVYSTFQSHEPEFDYLKSLEIEEKINKIRWLPQKNAAQFLLSTNDKTIKLWKISERDKRPEGYNLKEEDGRYRDPTTVTTLRVPVFRPMDLMVEASPRRIFANAHTYHINSISINSDYETYLSADDLRINLWHLEITDRSFNIVDIKPANMEELTEVITAAEFHPNSCNTFVYSSSKGTIRLCDMRASALCDRHSKLFEEPEDPSNRSFFSEIISSISDVKFSHSGRYMMTRDYLSVKIWDLNMENRPVETYQVHEYLRSKLCSLYENDCIFDKFECCWNGSDSVVMTGSYNNFFRMFDRNTKRDITLEASRENNKPRTVLKPRKVCASGKRKKDEISVDSLDFNKKILHTAWHPKENIIAVATTNNLYIFQDKVN
B4: FOXC1_HUMAN (protein, UniProt Q12948 1-553, looked up)
Forkhead box protein C1: MQARYSVSSPNSLGVVPYLGGEQSYYRAAAAAAGGGYTAMPAPMSVYSHPAHAEQYPGGMARAYGPYTPQPQPKDMVKPPYSYIALITMAIQNAPDKKITLNGIYQFIMDRFPFYRDNKQGWQNSIRHNLSLNECFVKVPRDDKKPGKGSYWTLDPDSYNMFENGSFLRRRRRFKKKDAVKDKEEKDRLHLKEPPPPGRQPPPAPPEQADGNAPGPQPPPVRIQDIKTENGTCPSPPQPLSPAAALGSGSAAAVPKIESPDSSSSSLSSGSSPPGSLPSARPLSLDGADSAPPPPAPSAPPPHHSQGFSVDNIMTSLRGSPQSAAAELSSGLLASAAASSRAGIAPPLALGAYSPGQSSLYSSPCSQTSSAGSSGGGGGGAGAAGGAGGAGTYHCNLQAMSLYAAGERGGHLQGAPGGAGGSAVDDPLPDYSLPPVTSSSSSSLSHGGGGGGGGGGQEAGHHPAAHQGRLTSWYLNQAGGDLGHLASAAAAAAAAGYPGQQQNFHSVREMFESQRIGLNNSPVNGNSSCQMAFPSSQSLYRTSGAFVYDCSKF
B5: ENSA_HUMAN (protein, UniProt O43768 2-121, looked up)
Alpha-endosulfine: SQKQEEENPAEETGEEKQDTQEKEGILPERAEEAKLKAKYPSLGQKPGGSDFLMKRLQKGQKYFDSGDYNMAKAKMKNKQLPSAGPDKNLVTGDHIPTPQDLPQRKSSLVTSKLAGGQVE
B6: ZDS1 N870: ZDS1, N870 to alanine (protein, UniProt P50111 1-915, looked up, variant N870A)
Protein ZDS1: MSNRDNESMLRTTSSDKAIASQRDKRKSEVLIAAQSLDNEIRSVKNLKRLSIGSMDLLIDPELDIKFGGESSGRRSWSGTTSSSASMPSDTTTVNNTRYSDPTPLENLHGRGNSGIESSNKTKQGNYLGIKKGVHSPSRKLNANVLKKNLLWVPANQHPNVKPDNFLELVQDTLQNIQLSDNGEDNDGNSNENNDIEDNGEDKESQSYENKENNTINLNRGLSRHGNASLIRRPSTLRRSYTEFDDNEDDDNKGDSASETVNKVEERISKIKERPVSLRDITEELTKISNSAGLTDNDAITLARTLSMAGSYSDKKDQPQPEGHYDEGDIGFSTSQANTLDDGEFASNMPINNTMTWPERSSLRRSRFNTYRIRSQEQEKEVEQSVDEMKNDDEERLKLTKNTIKVEIDPHKSPFRQQDEDSENMSSPGSIGDFQDIYNHYRQSSGEWEQEMGIEKEAEEVPVKVRNDTVEQDLELREGTTDMVKPSATDDNKETKRHRRRNGWTWLNNKMSREDDNEENQGDDENEENVDSQRMELDNSKKHYISLFNGGEKTEVSNKEEMNNSSTSTATSQTRQKIEKTFANLFRRKPHHKHDASSSPSSSPSSSPSIPNNDAVHVRVRKSKKLGNKSGREPVEPIVLRNRPRPHRHHHSRHGSQKISVKTLKDSQPQQQIPLQPQLEGAIEIEKKEESDSESLPQLQPAVSVSSTKSNSRDREEEEAKKKNKKRSNTTEISNQQHSKHVQKENTDEQKAQLQAPAQEQVQTSVPVQASAPVQNSAPVQTSAPVEASAQTQAPAAPPLKHTSILPPRKLTFADVKKPDKPNSPVQFTDSAFGFPLPLLTVSTVIMFDHRLPINVERAIYRLSHLKLSASKRGLREQVLLSNFMYAYLNLVNHTLYMEQVAHDKEQQQQQQQQP
B7: ZDS1 R876: ZDS1, R876 to alanine (protein, UniProt P50111 1-915, looked up, variant R876A)
Protein ZDS1: B6 Protein ZDS1 with A870N, R876A
B8: ZDS1 S871: ZDS1, S871 to alanine (protein, UniProt P50111 1-915, looked up, variant S871A)
Protein ZDS1: B6 Protein ZDS1 with A870N, S871A
B9: ZDS1 L880: ZDS1, L880 to alanine (protein, UniProt P50111 1-915, looked up, variant L880A)
Protein ZDS1: B6 Protein ZDS1 with A870N, L880A
B10: ZDS1 E877: ZDS1, E877 to alanine (protein, UniProt P50111 1-915, looked up, variant E877A)
Protein ZDS1: B6 Protein ZDS1 with A870N, E877A
B11: ZDS1 L863: ZDS1, L863 to alanine (protein, UniProt P50111 1-915, looked up, variant L863A)
Protein ZDS1: B6 Protein ZDS1 with L863A, A870N
B12: ZDS1 S882: ZDS1, S882 to alanine (protein, UniProt P50111 1-915, looked up, variant S882A)
Protein ZDS1: B6 Protein ZDS1 with A870N, S882A
B13: ZDS1 R873: ZDS1, R873 to alanine (protein, UniProt P50111 1-915, looked up, variant R873A)
Protein ZDS1: B6 Protein ZDS1 with A870N, R873A
B14: ZDS1 Y861: ZDS1, Y861 to alanine (protein, UniProt P50111 1-915, looked up, variant Y861A)
Protein ZDS1: B6 Protein ZDS1 with Y861A, A870N
B15: ZDS1 R862: ZDS1, R862 to alanine (protein, UniProt P50111 1-915, looked up, variant R862A)
Protein ZDS1: B6 Protein ZDS1 with R862A, A870N
B16: ZDS1 Q878: ZDS1, Q878 to alanine (protein, UniProt P50111 1-915, looked up, variant Q878A)
Protein ZDS1: B6 Protein ZDS1 with A870N, Q878A
B17: ZDS1 I860: ZDS1, I860 to alanine (protein, UniProt P50111 1-915, looked up, variant I860A)
Protein ZDS1: B6 Protein ZDS1 with I860A, A870N
B18: ZDS1 L875: ZDS1, L875 to alanine (protein, UniProt P50111 1-915, looked up, variant L875A)
Protein ZDS1: B6 Protein ZDS1 with A870N, L875A
B19: ZDS1 K872: ZDS1, K872 to alanine (protein, UniProt P50111 1-915, looked up, variant K872A)
Protein ZDS1: B6 Protein ZDS1 with A870N, K872A
B20: ZDS1 V879: ZDS1, V879 to alanine (protein, UniProt P50111 1-915, looked up, variant V879A)
Protein ZDS1: B6 Protein ZDS1 with A870N, V879A
B21: ZDS1 R858: ZDS1, R858 to alanine (protein, UniProt P50111 1-915, looked up, variant R858A)
Protein ZDS1: B6 Protein ZDS1 with R858A, A870N
B22: ZDS1 L881: ZDS1, L881 to alanine (protein, UniProt P50111 1-915, looked up, variant L881A)
Protein ZDS1: B6 Protein ZDS1 with A870N, L881A
B23: ZDS1 G874: ZDS1, G874 to alanine (protein, UniProt P50111 1-915, looked up, variant G874A)
Protein ZDS1: B6 Protein ZDS1 with A870N, G874A

What follows are molecules tested on B55α interactors (assay: MS analysis of B55α WT, V228A, I284A, S287A and D340A immunopurifications). Conditions: log2 ratio of interactor abundance, B55α D340A vs WT immunopurification, 4 replicates each, normalised to bait B55α.
Assay type: binding, human
Description: Standard cloning techniques were used throughout. Point mutations were introduced by whole plasmid polymerase chain reaction (PCR). All constructs were fully sequenced. Synthetic DNA was purchased from GeneArt, Life Technologies and cloned into pcDNA5/FRT/TO (Invitrogen) expression vector containing YFP, resulting in the indicated YFP fusion proteins. These constructs were transiently transfected into HeLa cells 24 hours before harvesting cells. Cells were lysed in lysis buffer [50 mM tris-HCl (pH 7.5), 50 mM NaCl, 1 mM EDTA, 1 mM […], and 0.1% NP-40]. Complexes were immunoprecipitated at 4°C in lysis buffer with green fluorescent protein (GFP)–Trap (ChromoTek) and washed in lysis buffer. Precipitated protein complexes were washed three times in lysis buffer, eluted in 2× SDS sample buffer, and subjected to Western blotting or MS as indicated.
Pull-downs were analyzed on a Q-Exactive Plus quadrupole or Fusion Orbitrap Lumos mass spectrometer (Thermo Fisher Scientific) equipped with Easy-nLC 1000 or […] (Thermo Fisher Scientific) and nanospray source (Thermo Fisher Scientific).
Static modifications included carbamidomethylcysteine, and variable modifications included oxidized methionine and STY phosphorylation. Searches were filtered using orthogonal measures including mass measurement accuracy (±3 parts per million), Xcorr for charges from +2 to +4, and dCn targeting a <1% false discovery rate at the peptide level. Quantification of LC-MS/MS spectra was performed using MassChroQ ([57]) and the iBAQ method ([58]). All data were analyzed using R 4.3.0. Missing values were imputed from a normal distribution. […] In each dataset, the abundance of the protein of interest was normalized to be equal across all samples. Statistical analyses were done using a two-tailed Student’s t test.

| Molecule | log2_ratio_D340_WT |
| --- | --- |
| B1 | -2.01 |
| B2 | -7.50 |
| B3 | 0.00 |
| B4 | -5.21 |
| B5 | -2.08 |

Same assay, conditions: log2 ratio of interactor abundance, B55α I284A vs WT immunopurification, 4 replicates each, normalised to bait B55α

| Molecule | log2_ratio I284_WT |
| --- | --- |
| B1 | -0.06 |
| B2 | 0.57 |
| B3 | 0.00 |
| B4 | -3.45 |
| B5 | -0.42 |

Same assay, conditions: log2 ratio of interactor abundance, B55α S287A vs WT immunopurification, 4 replicates each, normalised to bait B55α

| Molecule | log2_ratio S287_WT |
| --- | --- |
| B1 | 0.27 |
| B2 | -6.37 |
| B3 | 0.00 |
| B4 | 0.53 |
| B5 | 0.42 |

Same assay, conditions: log2 ratio of interactor abundance, B55α V228A vs WT immunopurification, 4 replicates each, normalised to bait B55α

| Molecule | log2_ratio V228_WT |
| --- | --- |
| B1 | -0.89 |
| B2 | -5.72 |
| B3 | 0.00 |
| B4 | -2.65 |
| B5 | -1.31 |

The molecules below were run on PP2A-B55α (assay: Single alanine mutational scan, YFP-tagged interactors immunoprecipitated from HeLa cells, Western blot). Conditions: single alanine mutant of YFP-tagged ZDS1.
Assay type: binding, human

| Molecule | Experimental % binding |
| --- | --- |
| B6 | 49% |
| B7 | 0% |
| B8 | 102% |
| B9 | 0% |
| B10 | 0% |
| B11 | 110% |
| B12 | 98% |
| B13 | 15% |
| B14 | 42% |
| B15 | 32% |
| B16 | 13% |
| B17 | 60% |
| B18 | 0% |
| B19 | 23% |
| B20 | 2% |
| B21 | 75% |
| B22 | 11% |
| B23 | 80% |
